Experimental data taken from US20080145369A1.

Tests used:
[1] = target: PCDGF cell surface receptors on the mink lung epithelial cell line CCL64 (mink); assay: Scatchard analysis of 125I-PCDGF binding to CCL64 cells, high affinity class
[2] = target: PCDGF cell surface receptors on the mink lung epithelial cell line CCL64 (mink); assay: Scatchard analysis of 125I-PCDGF binding to CCL64 cells, low affinity class
[3] = target: PCDGF receptor on breast cancer cells (MCF-7; AG-BC1); assay: PCDGF binding to AG-BC1 cells against MCF-7 cells; method not stated

Kd [1]: 0.043 nM
Kd [2]: 3.9 nM
fold increase in binding against MCF-7 cells [3]: 10 fold
Substance: PC-cell-derived growth factor (PCDGF) (ligand)
